Target: Acyl-CoA dehydrogenase from Mycobacterium thermoresistibile (Mycobacterium thermoresistibile)
Test: crystal structure

Question: “Acyl-CoA dehydrogenase from Mycobacterium thermoresistibile (enzyme)” was tested. Which stoichiometry N did it give?
Answer: Its stoichiometry N is 4.

Reference: article PMC3123459
